Experimental data: patent US20170106084A1 (Hoffmann-La Roche, published 2017)
Square brackets hold non-standard residues; d marks the D form. Ends that are not written are not given here. pS = N[C@@H](COP(=O)(O)O)C(=O)O

Key:
[1] = molecular target: T1, tau peptide residues 416 to 430 of SEQ ID NO: 01 (human, also: biotinylated, site not given here); assay: ELISA, coated antigen
T1 construct: also called non-phosphorylated tau peptide
T1 peptide: SIDMVDSPQLATLAD

[2] = molecular target: T2, human tau(pS422) fragment SEQ ID NO: 03 (human, also: biotinylated); assay: ELISA, coated antigen
T2 construct: also called phosphorylated tau peptide
T2 peptide: SIDMVD[pS]PQLATLAD

[3] = molecular target: full length human tau S422A mutant (human, UniProt P10636 2-758); assay: ELISA, coated antigen
Chain of full length human tau S422A mutant (P10636 other isoform, or with tags, fused parts or gaps S422A S422A limits assumed): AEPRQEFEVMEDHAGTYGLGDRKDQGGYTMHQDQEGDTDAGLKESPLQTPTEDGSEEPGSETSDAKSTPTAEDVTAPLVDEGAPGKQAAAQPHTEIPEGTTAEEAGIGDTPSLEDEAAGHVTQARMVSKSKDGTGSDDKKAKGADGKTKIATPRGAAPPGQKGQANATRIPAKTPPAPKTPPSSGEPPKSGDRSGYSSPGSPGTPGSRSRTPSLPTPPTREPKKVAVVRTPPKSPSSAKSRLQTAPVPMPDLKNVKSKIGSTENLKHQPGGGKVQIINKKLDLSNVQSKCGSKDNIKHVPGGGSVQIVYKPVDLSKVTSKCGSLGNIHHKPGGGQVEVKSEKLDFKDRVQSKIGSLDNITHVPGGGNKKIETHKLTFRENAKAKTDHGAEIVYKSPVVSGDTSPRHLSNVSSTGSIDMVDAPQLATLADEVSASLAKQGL

[4] = molecular target: T3, transferrin receptor on hCMEC/D3 cells (UniProt P02786 1-760, limits assumed); assay: transwell assay on hCMEC/D3 cells, IgG ELISA
T3 construct: whole, on cells; also called TfR
T3 sequence (P02786 whole entry): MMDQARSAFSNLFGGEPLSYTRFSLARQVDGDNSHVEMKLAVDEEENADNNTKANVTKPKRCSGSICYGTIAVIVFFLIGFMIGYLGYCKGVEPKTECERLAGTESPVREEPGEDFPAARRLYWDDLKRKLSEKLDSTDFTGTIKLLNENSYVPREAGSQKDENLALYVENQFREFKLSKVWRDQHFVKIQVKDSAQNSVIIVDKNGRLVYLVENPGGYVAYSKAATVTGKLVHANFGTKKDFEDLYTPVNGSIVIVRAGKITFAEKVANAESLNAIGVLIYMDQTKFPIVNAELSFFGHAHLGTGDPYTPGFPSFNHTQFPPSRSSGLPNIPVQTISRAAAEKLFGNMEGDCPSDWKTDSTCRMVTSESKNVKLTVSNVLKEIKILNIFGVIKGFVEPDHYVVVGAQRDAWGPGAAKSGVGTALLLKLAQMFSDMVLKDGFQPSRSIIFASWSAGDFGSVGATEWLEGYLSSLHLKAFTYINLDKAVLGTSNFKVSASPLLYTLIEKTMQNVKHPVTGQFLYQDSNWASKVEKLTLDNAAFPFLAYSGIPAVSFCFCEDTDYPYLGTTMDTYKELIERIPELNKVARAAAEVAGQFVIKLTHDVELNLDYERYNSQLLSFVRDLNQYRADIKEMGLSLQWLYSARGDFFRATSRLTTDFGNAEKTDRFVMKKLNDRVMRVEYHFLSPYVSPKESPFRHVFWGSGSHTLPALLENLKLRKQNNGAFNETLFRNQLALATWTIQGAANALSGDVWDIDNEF
Protocol: We used brain endothelial cells (hCMEC/D3) to investigate cell binding and transcytosis of the shuttle modules as reported herein. […] Cell monolayers were washed at room temperature in serum-free medium apically (400 μl) and basolaterally (1600 μl) three times for 3-5 minutes each. All wash volumes were collected to monitor efficiency of removal of the unbound ligand or antibody. Pre-warmed medium was added to the apical chamber and the filters transferred to a fresh 12 well plate (blocked overnight with PBS containing 1% BSA) containing 1600 μl pre-warmed medium. At this point, cells were lysed in 500 μl RIPA buffer (Sigma, Munich, Germany, #R0278) in order to determine specific uptakes. The remaining filters were incubated at 37° C. and samples collected at various time points to determine apical and/or basolateral release. The content of antibody in the samples was quantified using a highly sensitive IgG ELISA.

[5] = molecular target: T3, transferrin receptor on hCMEC/D3 cells; assay: transwell assay on hCMEC/D3 cells, huFc ELISA
[6] = molecular target: T3, transferrin receptor on hCMEC/D3 cells; assay: transwell assay on hCMEC/D3 cells, huFc ELISA; remark: listed apart in the source
[7] = molecular target: T2, human tau(pS422) fragment SEQ ID NO: 03; assay: ELISA, ratio of EC50 values
Protocol: (§1) Rabbit monoclonal antibodies were recombinantly expressed in HEK 293 cells. […] Coating with KLH or control peptides was performed at 1 μg/ml. […] After intensive washing, the binding of the rabbit antibodies was detected using a sheep anti-rabbit IgG digoxigenin conjugated detection antibody (Chemicon AQ301D). […] The antibody binding was characterized by its EC50 values. […] Cross-reactivity with KLH or MCAK phosphopeptide was estimated by single-point measurement at high concentrations, i.e. at 1:5 dilution of the cell culture supernatants.

[8] = molecular target: T1, tau peptide residues 416 to 430 of SEQ …; assay: ELISA, biotinylated peptide on streptavidin plate
Protocol: as §1

[9] = molecular target: T2, human tau(pS422) fragment SEQ ID NO: 03; assay: ELISA, biotinylated peptide on streptavidin plate
Protocol: as §1

[10] = molecular target: T4, MCAK_Human (88-102)[95-pSer] (human, UniProt Q99661 88-102, also: biotinylated, site not given here); assay: ELISA, single point
T4 construct: also called MCAK phosphopeptide
T4 peptide (looked up): IQKQKRR[pS]VNSKIPA

B1: VH32/VL21 (antibody, V domains shown)
VH: EVQVLESGGGLVQPGGSLRLSCAVSGFSLSSNAINWVRQAPGKGLEWVGYIAVSGNTYYASWAKGRFTISRDNSKNTVYLQMNSLRAEDTAVYYCGKSNIWGQGTLVTVSS
VL: AQVMTQSPSSLSASVGDRVTITCRSSQSVRTNKLAWFQQKPGQPPKRLIYSASTLDFGVPSRFSGSGSGTEFTLTISSLQPEDFATYYCLGYFDSSADIVAFGGGTKVEIK
notes: full size IgG; kappa (59) or lambda (60) light constant not specified
EC50 [1]: 0.634 µg/mL
EC50 [2]: 4.4 ng/mL
EC50 [3]: 0.0215 µg/mL

B2: VH32/VL22 (antibody, V domains shown)
VH: EVQVLESGGGLVQPGGSLRLSCAVSGFSLSSNAINWVRQAPGKGLEWVGYIAVSGNTYYASWAKGRFTISRDNSKNTVYLQMNSLRAEDTAVYYCGKSNIWGQGTLVTVSS
VL: AQVMTQSPSSLSASVGDRVTITCRSSQSVRTNRLAWFQQKPGQPPKRLIYSASTLDYGVPSRFSGSGSGTEFTLTISSLQPEDFATYYCLGYFDSSADIVAFGGGTKVEIK
notes: as for B1
EC50 [1]: 0.048 µg/mL
EC50 [3]: 0.0174 µg/mL

B3: TfR1-Bio (bispecific antibody, human IgG1, kappa)
heavy: not shown
light: QIVLTQSPAIMSASPGEKVTMTCSASSSIRYIHWYQQRPGTSPKRWIYDTSNLASGVPARFSGSGSGTSYSLTISSMEAEDAATYYCHQRNSYPWTFGGGTRLEIKRTVAAPSVFIFPPSDEQLKSGTASVVCLLNNFYPREAKVQWKVDNALQSGNSQESVTEQDSKDSTYSLSSTLTLSKADYEKHKVYACEVTHQGLSSPVTKSFNRGEC
notes: bivalent anti-TfR1 IgG with an anti-biotin scFv at each CH3 C-terminus; also called anti-TfR1 antibody-Bio
binding result [4]: binds

B4: TfR2-Bio (bispecific antibody, human IgG1, kappa)
heavy: not shown
light: QIVLTQSPAIMSASPGEKVTVTCSASSSIRYMHWYQQKPGTSPKRWIYDTSELASGVPARFSGSGSGTSYSLTINSMEAEDAATYYCHQRSSYPFTFGGGTKLEIKRTVAAPSVFIFPPSDEQLKSGTASVVCLLNNFYPREAKVQWKVDNALQSGNSQESVTEQDSKDSTYSLSSTLTLSKADYEKHKVYACEVTHQGLSSPVTKSFNRGEC
notes: bivalent anti-TfR2 IgG with an anti-biotin scFv at each CH3 C-terminus; also called anti-TfR2-Bio
binding result [4]: binds

B5: anti-TfR1 antibody (TfR1) (antibody, V domains shown)
VH: EVQLQQSGPELVKPGASMKISCKASGYSFTGYTMNWVKQSHGENLEWIGRINPHNGGTDYNQKFKDKAPLTVDKSSNTAYMELLSLTSEDSAVYYCARGYYYYSLDYWGQGTSVTVSS
VL: QIVLTQSPAIMSASPGEKVTMTCSASSSIRYIHWYQQRPGTSPKRWIYDTSNLASGVPARFSGSGSGTSYSLTISSMEAEDAATYYCHQRNSYPWTFGGGTRLEIKR
notes: also called parent antibody
binding result [5]: binds

B6: anti-TfR2 antibody (TfR2) (antibody, V domains shown)
VH: EVQLQQSGPELVKPGASVKMSCKASGYTFTSYVMHWVKQKPGQGLEWIGYVNPYNDDTKYNEKFRGKATLTSDKSSSTAYMELSSLTSEDSAVYYCARSYYYYSMDNWGQGTSVTVSS
VL: QIVLTQSPAIMSASPGEKVTVTCSASSSIRYMHWYQQKPGTSPKRWIYDTSELASGVPARFSGSGSGTSYSLTINSMEAEDAATYYCHQRSSYPFTFGGGTKLEIKR
notes: also called parent antibody
binding result [6]: binds

B7: VH00/VL00 (antibody, V domains shown)
VH: QSVEESGGRLVTPGTPLTLTCTVSGFSLSSNAINWVRQAPGKGLEWIGYIAVSGNTYYASWAKGRFTISKASTTVDLKMTSPTAEDTGTYFCGKSNIWGPGTLVTVSL
VL: AQVLTQTTSPVSAAVGSTVTISCQSSQSVRTNKLAWFQQKPGQPPKRLIYSASTLDFGVPSRFSASGSGTQFTLTISDVQCDDAATYYCLGYFDCSIADCVAFGGGTEVVVK
notes: rabbit variable domains; also called VH00 with VL00 (rabbit antibody); parent rabbit antibody
EC50 [3]: 0.0479 µg/mL

B8: mAb 086 (antibody, V domains shown)
VH: QSVEESGGRLVTPGTPLTLTCTVSGFSLSSNAINWVRQAPGKGLEWIGYIAVSGNTYYASWAKGRFTISKASTTVDLKMTSPTAEDTGTYFCGKSNIWGPGTLVTVSL
VL: AQVLTQTTSPVSAAVGSTVTISCQSSQSVRTNKLAWFQQKPGQPPKRLIYSASTLDFGVPSRFSASGSGTQFTLTISDVQCDDAATYYCLGYFDCSIADCVAFGGGTEVVVK
notes: recombinant rabbit IgG; also called rabbit antibody mAb 086
selectivity against non-phosphorylated tau peptide [7]: ≥ 100 fold
EC50 [8]: 0.266 µg/mL
EC50 [9]: 1.1 ng/mL
binding result [10]: no binding
